Data as given in US20190309084A1 (ALLIGATOR BIOSCIENCE, published 2019).

T1: Human GITR (Acro Biosystems, #GIR-H5228) (human, UniProt Q9Y5U5 26-161)
T1 construct: Bought recombinant protein, amine-coupled to the sensor tips; also called hGITR
T1 sequence: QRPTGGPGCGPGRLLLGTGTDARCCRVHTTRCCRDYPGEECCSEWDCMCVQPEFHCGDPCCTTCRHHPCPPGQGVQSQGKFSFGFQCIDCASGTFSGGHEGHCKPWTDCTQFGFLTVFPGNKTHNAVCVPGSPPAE

T2: GITR-hFc (R&D Systems, #689-GR) (human, UniProt Q9Y5U5 26-161)
T2 construct: Bought; also called Human GITR (coated in ELISA plates); not shown: human Fc part of a bought fusion protein
T2 sequence: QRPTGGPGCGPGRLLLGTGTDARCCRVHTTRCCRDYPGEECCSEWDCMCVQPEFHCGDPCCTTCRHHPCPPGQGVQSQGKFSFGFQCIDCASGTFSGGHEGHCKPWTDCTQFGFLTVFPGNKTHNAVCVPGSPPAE


Key:
[1] = target: T1, Human GITR (Acro Biosystems, #GIR-H5228); test: BLI (Octet RED96), GITR amine-coupled to AR2G tips, bispecific as analyte, 1:1 fit
[2] = target: T2, GITR-hFc (R&D Systems, #689-GR); test: dual ELISA: GITR-hFc coated, bispecific titrated, biotinylated CTLA-4-mFc then streptavidin-HRP, luminescence
[3] = target: T3, human CTLA-4 (ACRO Biosystems, #CT4-H5229) (human, UniProt P16410 38-152); test: BLI (Octet RED96), bispecific captured on anti-hIgG Fc (AHC) tips, hCTLA-4 as analyte, 1:1 fit
T3 construct: Bought recombinant protein, used as analyte in solution; also called hCTLA-4
T3 sequence (P16410 38-152 limits assumed): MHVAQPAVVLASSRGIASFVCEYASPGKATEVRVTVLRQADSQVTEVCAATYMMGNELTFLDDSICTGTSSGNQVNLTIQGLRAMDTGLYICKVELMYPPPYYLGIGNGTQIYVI

[4] = target: T2, GITR-hFc (R&D Systems, #689-GR); test: dual ELISA: GITR-hFc coated, bispecific titrated, detected with biotinylated CTLA-4-mFc + streptavidin-HRP (signal needs binding to both targets); wildtype IgG1; dual ELISA, signal needs both GITR and CTLA-4
[5] = target: T2, GITR-hFc (R&D Systems, #689-GR); test: dual ELISA: GITR-hFc coated, bispecific titrated, detected with biotinylated CTLA-4-mFc + streptavidin-HRP (signal needs binding to both targets); afucosylated IgG1; dual ELISA, signal needs both GITR and CTLA-4

Binder | Kd [1] [pM] | koff [1] [s⁻¹] | kon [1] [M⁻¹ s⁻¹] | EC50 (read off the curve) [2] [pM] | Kd [3] [pM] | koff [3] [s⁻¹] | kon [3] [M⁻¹ s⁻¹] | EC50 [4] [pM] | EC50 [5] [pM]
GITR/CTLA-4 bispecific antibody 2348/2349 (bispecific antibody, Anti-GITR IgG with CD86 mutant 1040 fused to the C-terminus of the kappa chain) VH: EVQLLESGGGLVQPGGSLRLSCAASGFTFGYYYMSWVRQAPGKGLEWVSGISSPSSYTYYADSVKGRFTISRDNSKNTLYLQMNSLRAEDTAVYYCARYYGSYFDYWGQGTLVTVSS light: DIQMTQSPSSLSASVGDRVTITCRASQAISAYLNWYQQKPGKAPKLLIYAASSLQSGVPSRFSGSGSGTDFTLTISSLQPEDFATYYCQQSYGYYLYTFGQGTKLEIKRTVAAPSVFIFPPSDEQLKSGTASVVCLLNNFYPREAKVQWKVDNALQSGNSQESVTEQDSKDSTYSLSSTLTLSKADYEKHKVYACEVTHQGLSSPVTKSFNRGECSGGGGSGGGGSAPLKIQAYFNETADLPCQFANSQNLSLSELVVFWQDQENLVLNEVYLGKERFDSVDSKYMGRTSFDSDSWTLRLHNLQIKDKGRYQCIIHHKKPTGMINIHQMNSELSVLA | 346 | 5.28e-05 | 153000 | ~1000 |  |  |  |  | 
GITR/CTLA-4 bispecific antibody 2372/2373, wildtype IgG1 format (bispecific antibody) VH: EVQLLESGGGLVQPGGSLRLSCAASGFTFSGYSMGWVRQAPGKGLEWVSAISGSGGSTYYADSVKGRFTISRDNSKNTLYLQMNSLRAEDTAVYYCARYPWGYYFDYWGQGTLVTVSS light: DIQMTQSPSSLSASVGDRVTITCRASQGIRAYLNWYQQKPGKAPKLLIYAVSSLQSGVPSRFSGSGSGTDFTLTISSLQPEDFATYYCQQYYYPPLSTFGQGTKLEIKRTVAAPSVFIFPPSDEQLKSGTASVVCLLNNFYPREAKVQWKVDNALQSGNSQESVTEQDSKDSTYSLSSTLTLSKADYEKHKVYACEVTHQGLSSPVTKSFNRGECSGGGGSGGGGSAPLKIQAYFNETADLPCQFANSQNLSLSELVVFWQDQENLVLNEVYLGKERFDSVDSKYMGRTSFDSDSWTLRLHNLQIKDKGRYQCIIHHKKPTGMINIHQMNSELSVLA | 608 | 0.000214 | 351000 | ~500 | 2900 | 0.000551 | 190000 | 640 | 
GITR/CTLA-4 bispecific antibody 2372/2373, afucosylated IgG1 format (bispecific antibody, afucosylated Fc domain) VH: EVQLLESGGGLVQPGGSLRLSCAASGFTFSGYSMGWVRQAPGKGLEWVSAISGSGGSTYYADSVKGRFTISRDNSKNTLYLQMNSLRAEDTAVYYCARYPWGYYFDYWGQGTLVTVSS light: DIQMTQSPSSLSASVGDRVTITCRASQGIRAYLNWYQQKPGKAPKLLIYAVSSLQSGVPSRFSGSGSGTDFTLTISSLQPEDFATYYCQQYYYPPLSTFGQGTKLEIKRTVAAPSVFIFPPSDEQLKSGTASVVCLLNNFYPREAKVQWKVDNALQSGNSQESVTEQDSKDSTYSLSSTLTLSKADYEKHKVYACEVTHQGLSSPVTKSFNRGECSGGGGSGGGGSAPLKIQAYFNETADLPCQFANSQNLSLSELVVFWQDQENLVLNEVYLGKERFDSVDSKYMGRTSFDSDSWTLRLHNLQIKDKGRYQCIIHHKKPTGMINIHQMNSELSVLA |  |  |  |  |  |  |  |  | 540
GITR/CTLA-4 bispecific antibody 2404/2405 (bispecific antibody, IgG1) VH: EVQLLESGGGLVQPGGSLRLSCAASGFTFSYSSMSWVRQAPGKGLEWVSYIGSGGSHTYYADSVKGRFTISRDNSKNTLYLQMNSLRAEDTAVYYCARYSYYFDYWGQGTLVTVSS light: not shown | 1670 | 0.000423 | 254000 | ~600 |  |  |  |  | 
